We go through three sequences from the supplement of paper PMC6379048.

Assay in all cases: Kd (EC50 corrected by depletion factor)
Data set [1] addresses T1, DAZAP1 (UniProt Q96EP5).
T1 sequence: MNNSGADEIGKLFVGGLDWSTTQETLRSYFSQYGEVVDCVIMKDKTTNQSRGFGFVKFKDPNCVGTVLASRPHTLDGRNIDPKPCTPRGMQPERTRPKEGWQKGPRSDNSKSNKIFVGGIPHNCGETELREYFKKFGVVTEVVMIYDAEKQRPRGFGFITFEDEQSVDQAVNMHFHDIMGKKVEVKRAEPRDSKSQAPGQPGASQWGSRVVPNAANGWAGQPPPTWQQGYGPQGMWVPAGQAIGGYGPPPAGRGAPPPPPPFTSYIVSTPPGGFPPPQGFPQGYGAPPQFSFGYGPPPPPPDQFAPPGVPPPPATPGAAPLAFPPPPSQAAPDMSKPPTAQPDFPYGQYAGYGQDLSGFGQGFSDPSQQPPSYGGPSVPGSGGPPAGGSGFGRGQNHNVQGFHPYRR
The method in brief:
(§1)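 HEK293-FT lysate (2.5 mg protein/well) was treated with free RNA oligos (0 nM to 30 μM) for 1 h at 4°C, then with the same oligos on NHS-Sepharose beads for 30 min at 4°C. Bound proteins were quantified by label-free LC-MS/MS relative to the control. EC50 came from a four-parameter log-logistic fit, and Kd is EC50 times a protein-dependent depletion factor.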

Data set [2] deals with T2, GPATCH3 (UniProt Q96I76).
T2 sequence: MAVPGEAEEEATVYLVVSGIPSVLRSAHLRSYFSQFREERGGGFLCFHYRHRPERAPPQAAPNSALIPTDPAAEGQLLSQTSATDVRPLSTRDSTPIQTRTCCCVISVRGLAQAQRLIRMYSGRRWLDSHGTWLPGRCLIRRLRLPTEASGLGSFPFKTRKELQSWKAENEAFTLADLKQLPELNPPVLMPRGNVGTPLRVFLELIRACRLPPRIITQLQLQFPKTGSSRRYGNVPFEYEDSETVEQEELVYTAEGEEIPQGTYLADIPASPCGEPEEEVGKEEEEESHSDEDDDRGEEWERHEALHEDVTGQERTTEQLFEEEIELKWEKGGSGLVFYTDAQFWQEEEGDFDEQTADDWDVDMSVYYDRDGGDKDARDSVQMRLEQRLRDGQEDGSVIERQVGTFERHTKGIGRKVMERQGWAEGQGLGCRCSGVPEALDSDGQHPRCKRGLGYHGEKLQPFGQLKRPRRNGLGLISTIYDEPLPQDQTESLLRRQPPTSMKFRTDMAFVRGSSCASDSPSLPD
The method in brief:
as §1

For data set [3], the target named is T3, KHSRP (UniProt Q92945).
T3 sequence: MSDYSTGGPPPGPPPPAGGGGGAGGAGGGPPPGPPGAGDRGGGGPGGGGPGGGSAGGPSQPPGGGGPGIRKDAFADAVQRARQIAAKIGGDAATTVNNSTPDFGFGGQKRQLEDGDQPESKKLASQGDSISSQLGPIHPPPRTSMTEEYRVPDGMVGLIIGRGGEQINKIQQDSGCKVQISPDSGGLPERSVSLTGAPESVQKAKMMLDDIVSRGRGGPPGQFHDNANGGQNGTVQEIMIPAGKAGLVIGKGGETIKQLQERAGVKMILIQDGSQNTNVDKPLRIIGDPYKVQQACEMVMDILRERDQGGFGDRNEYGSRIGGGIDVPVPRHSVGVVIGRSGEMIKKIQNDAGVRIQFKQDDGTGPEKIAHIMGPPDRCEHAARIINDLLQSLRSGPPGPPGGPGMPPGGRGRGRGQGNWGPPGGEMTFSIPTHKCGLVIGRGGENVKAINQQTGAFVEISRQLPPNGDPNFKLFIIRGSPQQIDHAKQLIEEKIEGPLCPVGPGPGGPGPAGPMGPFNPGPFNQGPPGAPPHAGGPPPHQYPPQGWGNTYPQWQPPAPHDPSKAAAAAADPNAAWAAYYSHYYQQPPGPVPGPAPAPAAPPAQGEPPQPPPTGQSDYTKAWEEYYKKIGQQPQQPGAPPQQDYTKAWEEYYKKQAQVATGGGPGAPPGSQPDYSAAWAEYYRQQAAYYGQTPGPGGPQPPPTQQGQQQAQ
The method in brief:
as §1

The target in data set [4] is LSM3 (UniProt P62310). The method in brief:
as §1

The target in data set [5] is PABPC4 (UniProt Q13310). The method in brief:
as §1

The target of data set [6] is RPS20 (UniProt P60866). The method in brief: as §1
The target in data set [7] is T4, SRSF3 (UniProt P84103).
T4 sequence: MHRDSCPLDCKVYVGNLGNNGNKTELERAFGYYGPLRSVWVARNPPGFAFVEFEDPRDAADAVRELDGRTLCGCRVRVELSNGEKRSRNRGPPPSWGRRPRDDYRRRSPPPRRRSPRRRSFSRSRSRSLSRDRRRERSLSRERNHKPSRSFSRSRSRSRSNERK
The method in brief:
as §1

The target in data set [8] is T5, ZFP36L2 (UniProt P47974).
T5 sequence: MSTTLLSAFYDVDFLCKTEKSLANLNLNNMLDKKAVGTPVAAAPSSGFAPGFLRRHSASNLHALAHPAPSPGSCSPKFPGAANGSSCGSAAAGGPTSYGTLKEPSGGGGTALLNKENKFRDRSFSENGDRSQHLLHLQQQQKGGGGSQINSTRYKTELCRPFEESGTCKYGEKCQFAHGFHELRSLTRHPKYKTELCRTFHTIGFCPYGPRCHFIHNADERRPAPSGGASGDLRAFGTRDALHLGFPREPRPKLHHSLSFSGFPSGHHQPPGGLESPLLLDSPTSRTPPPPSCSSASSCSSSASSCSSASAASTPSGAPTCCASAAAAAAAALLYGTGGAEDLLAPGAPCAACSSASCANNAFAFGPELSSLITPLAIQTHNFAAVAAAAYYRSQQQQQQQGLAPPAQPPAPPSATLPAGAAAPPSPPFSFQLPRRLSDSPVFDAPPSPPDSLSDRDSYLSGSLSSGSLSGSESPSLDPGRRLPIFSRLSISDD
The method in brief:
as §1

LSM3, sequence (P62310 whole entry): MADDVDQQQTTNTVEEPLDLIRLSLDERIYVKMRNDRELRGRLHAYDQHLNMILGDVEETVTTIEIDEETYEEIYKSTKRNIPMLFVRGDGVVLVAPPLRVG
PABPC4, sequence (Q13310 whole entry): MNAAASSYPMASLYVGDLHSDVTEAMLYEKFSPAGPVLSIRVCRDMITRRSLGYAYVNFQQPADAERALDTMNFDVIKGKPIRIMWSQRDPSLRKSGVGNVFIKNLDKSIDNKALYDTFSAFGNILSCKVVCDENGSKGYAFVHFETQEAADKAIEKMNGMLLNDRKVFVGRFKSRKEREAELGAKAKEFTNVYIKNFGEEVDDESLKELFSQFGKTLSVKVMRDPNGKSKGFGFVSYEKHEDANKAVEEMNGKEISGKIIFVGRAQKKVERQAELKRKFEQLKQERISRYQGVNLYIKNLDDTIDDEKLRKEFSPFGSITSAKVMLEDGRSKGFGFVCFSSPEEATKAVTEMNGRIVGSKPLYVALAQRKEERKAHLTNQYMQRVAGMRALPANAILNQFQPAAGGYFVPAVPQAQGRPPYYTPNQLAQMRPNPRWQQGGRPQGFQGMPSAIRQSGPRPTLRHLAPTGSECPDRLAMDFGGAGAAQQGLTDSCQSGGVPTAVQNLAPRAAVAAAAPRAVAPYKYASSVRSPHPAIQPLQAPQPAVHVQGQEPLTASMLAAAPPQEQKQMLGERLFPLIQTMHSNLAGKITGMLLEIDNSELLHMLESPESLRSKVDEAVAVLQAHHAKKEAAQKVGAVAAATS

Regarding AAUAAA, the Kd (in general, a measure of binding affinity in units of concentration) in data set [1] is 113 nM; in data set [2], 196 nM; in data set [3] it was 310 nM; in data set [4], 45 nM; in data set [5], 1530 nM; in data set [6], 2300 nM. In addition, the Kd in data set [7] is 281 nM; in data set [8] it was 357 nM.

Take CUGUCCU: the dissociation constant (Kd) in data set [6] stood at 59.8 nM; in data set [7], 790 nM.

As for UAUUUAU, the equilibrium dissociation constant (Kd) worked out at 286 nM in data set [1]; 243 nM in data set [2]; 928 nM in data set [3]; 307 nM in data set [4]; 7840 nM in data set [5]; 11.1 nM in data set [8].
